B1: humanized UCHT1 (anti-CD3) (antibody, V domains shown)
VH: EVQLVESGGGLVQPGGSLRLSCAASGYSFTGYTMNWVRQAPGKGLEWVALINPYKGVSTYNQKFKDRFTISVDKSKNTAYLQMNSLRAEDTAVYYCARSGYYGDSDWYFDVWGQGTLVTVSS
VL: DIQMTQSPSSLSASVGDRVTITCRASQDIRNYLNWYQQKPGKAPKLLIYYTSRLESGVPSRFSGSGSGTDYTLTISSLQPEDFATYYCQQGNTLPWTFGQGTKVEIK
notes: also called anti-CD3 antibody

Columns and labels:
[1] = target: CD3 epsilon-delta heterodimeric protein (Acro Biosystems) (Homo sapiens (assumed)) (UniProt P07766); test: SPR; IgGs or Fc fusions captured on antihuman Fc polyclonal antibodies amine-coupled to a CM5 chip; spike trimer or CD3 epsilon-delta heterodimer injected; blank flow cell subtracted; 1:1 Langmuir model, simultaneous global fit of ka and kd, KD = kd/ka; BIAcore 2000 (methods) or BIAcore T100 (footnote of Table S3)
[2] = target: T1, CD3 epsilon-delta heterodimeric protein (Acro Biosystems) (Homo sapiens (assumed), UniProt P07766;P04234); test: as above; details: both partners purified
T1 construct: also called recombinant CD3delta epsilon; CD3delta-epsilon
T1 sequence (P07766 23-126, stated change not applied, chain 1 of 2): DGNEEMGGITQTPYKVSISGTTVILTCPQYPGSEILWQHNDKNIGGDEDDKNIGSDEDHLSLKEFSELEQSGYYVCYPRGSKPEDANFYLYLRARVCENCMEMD
T1 sequence (P04234 22-171, stated change not applied, chain 2 of 2): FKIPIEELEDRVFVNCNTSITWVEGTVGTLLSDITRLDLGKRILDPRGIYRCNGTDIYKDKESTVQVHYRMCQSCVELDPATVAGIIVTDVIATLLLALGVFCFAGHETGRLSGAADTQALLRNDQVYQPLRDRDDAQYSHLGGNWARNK

Row | Molecule | Kd [1] [nM] | koff [1] [s⁻¹] | kon [1] [M⁻¹ s⁻¹] | Kd [2] [nM]
1 | SC02, anti-S/CD3 bispecific CrossMab from CV3-25/UCHT1 (bispecific antibody) | 0.29 | 0.000285 | 974000 | 
2 | B1 |  |  |  | 0.16
